Assay [1] deals with T1, human claudin-4, biotinylated (hsCLDN-4-Biotin) (human, UniProt O14493 1-209).
T1 sequence: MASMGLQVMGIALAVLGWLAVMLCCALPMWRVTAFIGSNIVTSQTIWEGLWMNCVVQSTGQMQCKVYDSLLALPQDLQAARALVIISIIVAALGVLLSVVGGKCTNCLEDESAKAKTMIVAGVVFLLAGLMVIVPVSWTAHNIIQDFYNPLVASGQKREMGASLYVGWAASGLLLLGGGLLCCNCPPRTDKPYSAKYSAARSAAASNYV
Briefly: BLI.

Assay [2] addresses T2, human claudin-9, biotinylated (hsCLDN-9-Biotin) (human, UniProt O95484).
T2 sequence: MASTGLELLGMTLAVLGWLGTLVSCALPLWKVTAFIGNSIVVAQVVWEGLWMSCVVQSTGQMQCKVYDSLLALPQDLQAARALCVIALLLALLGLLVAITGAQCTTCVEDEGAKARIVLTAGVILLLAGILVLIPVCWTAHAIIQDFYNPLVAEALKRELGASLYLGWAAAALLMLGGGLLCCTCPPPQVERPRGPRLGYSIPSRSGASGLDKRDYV
Nature of the assay: BLI.

For assay [3], the target named is T3, mouse claudin-4, biotinylated (mmCLDN-4-Biotin) (mouse, UniProt O35054 1-210).
T3 sequence: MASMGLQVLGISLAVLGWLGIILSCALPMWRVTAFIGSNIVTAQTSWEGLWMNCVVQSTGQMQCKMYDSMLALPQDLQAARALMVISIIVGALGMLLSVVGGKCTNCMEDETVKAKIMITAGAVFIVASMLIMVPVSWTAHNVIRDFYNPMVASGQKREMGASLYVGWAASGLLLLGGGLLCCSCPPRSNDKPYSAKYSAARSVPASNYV
Briefly: BLI.

For assay [4], the target named is C-terminal domain of Clostridium perfringens enterotoxin (cCpE), tagless (Clostridium perfringens, UniProt P01558).

B1: cCpE-His10 (domain or fragment)
chain: STDIEKEILDLAAATERLNLTDALNSNPAGNLYDWRSSNSYPWTQKLNLHLTITATGQKYRILASKIVDFNIYSNNFNNLVKLEQSLGDGVKDHYVDISLDAGQYVLVMKANSSYSGNYPYSILFQKF
For the molecule B1, the Kd in assay [1], in assay [2] and in assay [3] was under 12 nM each time.

B2: COP-3 (antibody, V domains shown)
VH: EVQLVESGGGLVQPGGSLRLSCAASGFNFYSSSIHWVRQAPGKGLEWVAYISSYSGYTYYADSVKGRFTISADTSKNTAYLQMNSLRAEDTAVYYCARGYGYFDYNFSVGYALDYWGQGTLVTVSS
VL: DIQMTQSPSSLSASVGDRVTITCRASQSVSSAVAWYQQKPGKAPKLLIYSASSLYSGVPSRFSGSRSGTDFTLTISSLQPEDFATYYCQQSHPWYYPITFGQGTKVEIK
For the molecule B2, the binding result in assay [4] is reported as “binds”.

For the origin of these results see doi:10.1101/2023.06.12.544689 (bioRxiv, 2023).
